Molecular target: the molecule itself
Experiment: negative-stain TEM, homomeric self-assembly
Method: FIG. 2(a-b). Transmission electron micrographs of degreased I3-01 constructs. […] Images taken at 22,000× magnification.
Samples were prepared for negative stain EM by diluting to 0.05-0.075 mg/mL using a Tris-based buffer, and 6.0 μL was incubated on a glow-discharged, copper, carbon-coated grid for 1 min before quickly immersing the grid in a 60 μL drop of water. The water was blotted off within seconds by Whatman™ No. 1 filter paper, and the grid was immediately dipped into a 6.0 μL drop of stain (2% w/v uranyl formate). The stain was immediately blotted away and within seconds the grid was dipped into another 6.0 μL drop of stain, which was left on the grid for 30 seconds. At the end of this time, the stain was blotted dry and allowed to air dry for 5 minutes prior to imaging. Images were recorded on a FEI Morgagni 268 transmission electron microscope equipped with a Gatan US4000 CCD camera, using Leginon™ software for data collection at a nominal magnification of 22,000× at a defocus range comprised between −1 um and −4 um.

| Protein | binding result |
| --- | --- |
| I3-01 H35D (designed binder, One-component (homomeric) icosahedral nanoparticle secreted from HEK293F cells; also called H35D variant; degreased I3-01 construct) YKDEKMEELFKKHKIVAVLRANSVEEAKKKALAVFLGGVDLIEITFTVPDADTVIKELSFLKEMGAIIGAGTVTSVEQCRKAVESGAEFIVSPHLDEEISQFCKEKGVFYMPGVMTPTELVKAMKLGHTILKLFPGEVVGPQFVKAMKGPFPNVKFVPTGGVNLDNVCEWFKAGVLAVGVGSALVKGTPVEVAEKAKAFVEKIRGCTEQKLISEEDLHHHHHH | binds |
| I3-01 'secretion mutations' (H35D/L171Q/S177E/V180N) (designed binder, One-component (homomeric) icosahedral nanoparticle secreted from HEK293F cells; also called H35D/L171Q/S177E/V180N quadruple mutant) YKDEKMEELFKKHKIVAVLRANSVEEAKKKALAVFLGGVDLIEITFTVPDADTVIKELSFLKEMGAIIGAGTVTSVEQCRKAVESGAEFIVSPHLDEEISQFCKEKGVFYMPGVMTPTELVKAMKLGHTILKLFPGEVVGPQFVKAMKGPFPNVKFVPTGGVNLDNVCEWFKAGVQAVGVGEALNKGTPVEVAEKAKAFVEKIRGCTEQKLISEEDLHHHHHH | binds |

Reference: patent publication US20230075095A1 (University of Washington, published 2023)
